Results as given in patent US8734776B2 (ZymoGenetics, Inc., priority 2003, dated 2014).

What was measured:
[1] = tested on: encephelomyocarditis virus; assay: Antiviral assay: cytopathic effect in HeLa cells; assay type: cell-based, human
[2] = tested on: encephelomyocarditis virus; assay: Antiviral assay: cytopathic effect in L929 cells; assay type: cell-based, mouse
Mouse B cells = assay: Mouse B cell 3H-thymidine incorporation; assay type: cell-based
Description: Mouse B cells were isolated from 2 Balb/C spleens (7 months old) by depleting CD43+ cells using MACS magnetic beads. Purified B cells were cultured in vitro with LPS, anti-IgM or anti-CD40 monoclonal antibodies. Mouse IL-28 or mouse IFNα was added to the cultures and ^3H-thymidine was added at 48 hrs. and ^3H-thymidine incorporation was measured after 72 hrs. culture.

AML-12 cells = assay: ISG induction in mouse liver cell line AML-12 (real-time PCR); assay type: cell-based; settings: 20 ng/ml, 48 hour time point
adenoviral vector, AdGFP = assay: Adenoviral (AdGFP) liver pathology in mice; assay type: in vivo, mouse; settings: C57Bl/6 mice
Description: When injected intravenously, these viruses primarily target the liver for gene expression. The adenoviruses are replication deficient, but cause liver damage due to inflammatory cell infiltrate that can be monitored by measurement of serum levels of liver enzymes like AST and ALT, or by direct examination of liver pathology.
C57B116 mice were given once daily intraperitoneal injections of 50 μg mouse IL-28 (zcyto24 as shown in SEQ ID NO:8) or metIL-29C172S—PEG for 3 days. Control animals were injected with PBS. One hour following the 3rd dose, mice were given a single bolus intravenous tail vein injection of the adenoviral vector, AdGFP (1×10^9 plaque-forming units (pfu)). Following this, every other day mice were given an additional dose of PBS, mouse IL-28 or metIL-29C172S—PEG for 4 more doses (total of 7 doses). One hour following the final dose of PBS, mouse IL-28 or metIL-29C172S—PEG mice were terminally bleed and sacrificed. The serum and liver tissue were analyzed. Serum was analyzed for AST and ALT liver enzymes. Liver was isolated and analyzed for GFP expression and histology. For histology, liver specimens were fixed in formalin and then embedded in paraffin followed by H&E staining. Sections of liver that had been blinded to treat were examined with a light microscope. Changes were noted and scored on a scale designed to measure liver pathology and inflammation.

[3] = tested on: ISRE signaling in HepG2 cells; settings: 100 ng/ml; 4-hour

B1: zcyto24: mouse IL-28, SEQ ID NO:8 (protein, listed as Mus musculus)
chain: MKPETAGGHMLLLLLPLLLAAVLTRTQADPVPRATRLPVEAKDCHIAQFKSLSPKELQAFKKAKDAIEKRLLEKDLRCSSHLFPRAWDLKQLQVQERPKALQAEVALTLKVWENMTDSALATILGQPLHTLSHIHSQLQTCTQLQATAEPRSPSRRLSRWLHRLQEAQSKETPGCLEASVTSNLFRLLTRDLKCVANGDQCV
modifications: SIGNAL (1)...(28)
Percentage Cytopathic Effect ([1]; relative CM concentration .008X): 0% | Percentage Cytopathic Effect ([1]; relative CM concentration .0156X): 0% | Percentage Cytopathic Effect ([1]; relative CM concentration .0325X): 0% | Percentage Cytopathic Effect ([1]; relative CM concentration .0625X): 0% | Percentage Cytopathic Effect ([1]; relative CM concentration .125X): 0% | Percentage Cytopathic Effect ([1]; relative CM concentration .25X): 0% | Percentage Cytopathic Effect ([1]; relative CM concentration .5X): 0% | Percentage Cytopathic Effect ([2]; relative CM conc. .008X): 87% | Percentage Cytopathic Effect ([2]; relative CM conc. .0156X): 87% | Percentage Cytopathic Effect ([2]; relative CM conc. .0325X): 87% | Percentage Cytopathic Effect ([2]; relative CM conc. .0625X): 87% | Percentage Cytopathic Effect ([2]; relative CM conc. .125X): 87% | Percentage Cytopathic Effect ([2]; relative CM conc. .25X): 87% | Percentage Cytopathic Effect ([2]; relative CM conc. .5X): 87% | 3H-thymidine incorporation by mouse B cells (Mouse B cells; stimulated with LPS or anti-IgM, IFNα 10 ng/ml, mouse IL-28 any concentration including 1000 ng/ml): did not inhibit | 3H thymidine incorporation by mouse B cells (Mouse B cells; stimulated with anti-CD40 MAb): increased | Mx1 expression relative to HPRT (AML-12 cells): 0.08 | OAS expression relative to HPRT (AML-12 cells): 0.04 | PkR expression relative to HPRT (AML-12 cells): 0.02 | liver histology: liver and inflammation scores versus PBS-treated group (adenoviral vector, AdGFP): lower liver and inflammation scores | average serum AST (adenoviral vector, AdGFP; 50 μg i.p., 7 doses, n=8): 193 U/L | relative liver fluorescence (adenoviral vector, AdGFP; 50 μg i.p., 7 doses, n=8): 34.5 arbitrary units | serum ALT (adenoviral vector, AdGFP; 50 μg i.p., 7 doses, n=8): 216 U/L | Fold Induction of Cytokine-dependent ISRE Signaling in HepG2 Cells [3]: 4.7 fold
